Assay [1] has as its target tail-less PS-1 (amino acids 1-430 of PS-1) (human, UniProt P49768 1-430). Put plainly: co-immunoprecipitation with MAb to the PS-1 loop, Western blot with anti-Go. From the text: Verification of the binding of G-protein Gₒ to the cytoplasmic carboxyl terminus of PS-1. A tail-less construct of PS-1 was made in pcDNA3 in which only the cytoplasmic domain of PS-1 immediately following the last TM-domain is deleted (this construct comprises amino acids 1-430). This construct was used to transfect ES (PS-1^{-/-}/PS-2^{-/-}) cells. […] In an identical strategy to the one described above for full-length PS-1, ES (PS-1^{-/-}/PS-2^{-/-}) cells were transfected with cDNAs for tail-less PS-1 and the G-proteins GoA or GoB. Cells extracts were then subjected to immunoprecipitation with PS-1 loop MAb #5232), separated on SDS PAGE and Western blotted with antibodies to Gₒ.
100 μg of extract of ES (PS-1^{-/-}/PS-2^{-/-}) cells co-transfected with cDNAs for tail-less PS-1 and the G-protein GαoA or GαoB were immunoprecipitated with MAb to the large hydrophilic loop of PS-1, followed by Western blot hybridization with affinity purified polyclonal antibody to Gₒ (recognizes both isoforms, GoA and GoB).
On the technique in general: In western blotting, separated proteins are transferred to a membrane and probed.

In assay [2] the target is T1, rat G-protein Gαq in rat hippocampal membranes (rat, UniProt P82471 1-359).
T1 construct: also called Gq
T1 sequence (looked up): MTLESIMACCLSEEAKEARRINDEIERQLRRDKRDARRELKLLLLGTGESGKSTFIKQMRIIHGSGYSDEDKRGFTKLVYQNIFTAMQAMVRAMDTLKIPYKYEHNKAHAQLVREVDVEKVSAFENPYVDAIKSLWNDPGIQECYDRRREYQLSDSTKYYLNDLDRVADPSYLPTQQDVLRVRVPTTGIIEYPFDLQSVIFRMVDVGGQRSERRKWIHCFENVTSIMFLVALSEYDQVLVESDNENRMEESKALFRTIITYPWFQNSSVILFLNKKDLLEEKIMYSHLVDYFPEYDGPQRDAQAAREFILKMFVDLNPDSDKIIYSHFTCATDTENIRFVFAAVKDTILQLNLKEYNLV
In words: stimulation of ^35S-GTPγS binding by the peptide in rat hippocampal membranes. A general note: GTPγS resists hydrolysis and so accumulates on activated G proteins.

The text below walks through data of US20090305946A1 (University of California, published 2009).

B1: human G-protein GαoB (other)
chain: GCTLSAEERAALERSKAIEKNLKEDGISAAKDVKLLLLGAGESGKSTIVKQMKIIHEDGFSGEDVKQYKPVVYSNTIQSLAAIVRAMDTLGIEYGDKERKADAKMVCDVVSRMEDTEPFSAELLSAMMRLWGDSGIQECFNRSREYQLNDSAKYYLDSLDRIGAADYQPTEQDILRTRVKTTGIVETHFTFKNLHFRLFDVGGQRSERKKWIHCFEDVTAIIFCVALSGYDQVLHEDETTNRMHESLKLFDSICNNKWFTDTSIILFLNKKDIFEEKIKKSPLTICFPEYTGPSAFTEAVAYIQAQYESKNKSAHKEIYTHVTCATDTNNIQFVFDAVTDVIIAKNLRGCGLY
notes: Co-transfected with PS constructs in ES double-null cells; assayed in detergent extracts; also called GoB; GOB
Take B1: the binding result in assay [1] was “no binding”.

B2: PS-1 cytoplasmic peptide C(21-39), last 19 amino acids of the C-tail (peptide)
peptide: TDYLVQPFMDQLAFHQFYI
notes: Synthetic peptide; also called residues 21-39 of the C-tail
Consider B2, for which the binding result in assay [2] was “binds”.

B3: PS-1 cytoplasmic peptide ic3 (KYLPE) (peptide)
peptide: KYLPE
notes: Synthetic peptide; also called loop 3; Cytoplasmic Loop 3 peptide
With B3, in assay [2], the binding result is reported as “binds”.
